The data set concerns the target endogenous raptor (UniProt Q8N122).

Chain of endogenous raptor (Q8N122 whole entry, looked up): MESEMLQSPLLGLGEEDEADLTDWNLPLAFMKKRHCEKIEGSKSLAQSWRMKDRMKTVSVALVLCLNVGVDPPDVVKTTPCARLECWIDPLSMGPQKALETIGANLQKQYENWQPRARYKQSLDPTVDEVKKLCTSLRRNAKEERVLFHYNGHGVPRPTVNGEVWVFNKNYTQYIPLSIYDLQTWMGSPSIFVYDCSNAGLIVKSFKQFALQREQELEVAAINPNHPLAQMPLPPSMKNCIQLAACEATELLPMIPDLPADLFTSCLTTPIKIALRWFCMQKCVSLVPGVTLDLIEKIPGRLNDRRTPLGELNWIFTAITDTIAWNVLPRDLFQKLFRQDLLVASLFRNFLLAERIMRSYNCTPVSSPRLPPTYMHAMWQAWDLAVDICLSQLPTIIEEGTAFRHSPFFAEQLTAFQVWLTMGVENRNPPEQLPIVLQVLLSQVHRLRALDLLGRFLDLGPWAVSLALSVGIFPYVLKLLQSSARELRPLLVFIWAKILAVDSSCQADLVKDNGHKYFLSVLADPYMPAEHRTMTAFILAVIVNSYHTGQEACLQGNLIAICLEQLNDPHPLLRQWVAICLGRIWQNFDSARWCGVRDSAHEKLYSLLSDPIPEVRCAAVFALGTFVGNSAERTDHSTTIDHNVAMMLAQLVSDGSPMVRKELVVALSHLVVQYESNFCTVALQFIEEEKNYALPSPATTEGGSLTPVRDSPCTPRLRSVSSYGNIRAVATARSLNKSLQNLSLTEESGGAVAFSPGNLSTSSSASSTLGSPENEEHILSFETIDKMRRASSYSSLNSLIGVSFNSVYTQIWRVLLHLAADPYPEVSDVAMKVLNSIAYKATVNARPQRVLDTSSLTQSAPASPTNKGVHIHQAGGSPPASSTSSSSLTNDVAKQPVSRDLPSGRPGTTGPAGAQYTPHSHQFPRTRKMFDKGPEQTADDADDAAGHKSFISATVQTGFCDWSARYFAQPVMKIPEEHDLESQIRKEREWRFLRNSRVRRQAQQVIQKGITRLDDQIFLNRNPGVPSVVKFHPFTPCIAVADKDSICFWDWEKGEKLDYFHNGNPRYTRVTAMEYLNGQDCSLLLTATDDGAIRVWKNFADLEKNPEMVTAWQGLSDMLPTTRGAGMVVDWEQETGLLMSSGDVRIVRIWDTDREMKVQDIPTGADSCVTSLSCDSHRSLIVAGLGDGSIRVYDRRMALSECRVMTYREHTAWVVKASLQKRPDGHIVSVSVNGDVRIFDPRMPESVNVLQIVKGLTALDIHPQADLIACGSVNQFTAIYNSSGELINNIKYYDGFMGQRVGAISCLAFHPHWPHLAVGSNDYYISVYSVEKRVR

Regarding phospholipase D2, wild type (PLD2^wt), the “exogenous PA-dependent phosphorylation of S6K1 (add-back)” value is “the exogenous PA-dependent phosphorylation of S6K1 was rescued by PLD2^wt and PLD2^K758R, but not by PLD2^F265A and PLD2^E266R”.

The values above are taken from US20100184636.
